Biological target: microtubules assembled from highly purified (MAP-free) porcine brain tubulin (porcine) (UniProt P02550)
Test: co-sedimentation; MTs assembled from 25 µM PC-purified (MAP-free) porcine brain tubulin in PEM (100 mM Pipes pH 6.8, 2 mM EGTA, 1 mM MgCl2) with 1 mM GTP, 10% glycerol, 1 mM DTT, 0.5% Triton X-100, 1 h 37°C; 2.5 µM recombinant plectin fragment added for 60 min; 45 000 g 30 min 37°C; supernatant and pellet by SDS-PAGE, Coomassie, densitometry

Work on “plectin fragment P2(2α3α)-8 (exons 2(2α3α)-8), untagged (domain or fragment)” yielded a percent co-sedimented with MTs of 36.5%.

Substance “plectin fragment P1c(2α3α)-8 (exons 1c(2α3α)-8), untagged (domain or fragment)” has a percent co-sedimented with MTs of 52%.
